# Laboratory results published in patent publication US20080194019.
# Columns and labels:
# FLAG-tagged tuberin = FLAG-tagged tuberin (UniProt P49815)
# [1] = tested on: MBP-AMPKa (1-312) bacterial fusion protein
# Sequence of FLAG-tagged tuberin (P49815 whole entry, the tested form may be a part): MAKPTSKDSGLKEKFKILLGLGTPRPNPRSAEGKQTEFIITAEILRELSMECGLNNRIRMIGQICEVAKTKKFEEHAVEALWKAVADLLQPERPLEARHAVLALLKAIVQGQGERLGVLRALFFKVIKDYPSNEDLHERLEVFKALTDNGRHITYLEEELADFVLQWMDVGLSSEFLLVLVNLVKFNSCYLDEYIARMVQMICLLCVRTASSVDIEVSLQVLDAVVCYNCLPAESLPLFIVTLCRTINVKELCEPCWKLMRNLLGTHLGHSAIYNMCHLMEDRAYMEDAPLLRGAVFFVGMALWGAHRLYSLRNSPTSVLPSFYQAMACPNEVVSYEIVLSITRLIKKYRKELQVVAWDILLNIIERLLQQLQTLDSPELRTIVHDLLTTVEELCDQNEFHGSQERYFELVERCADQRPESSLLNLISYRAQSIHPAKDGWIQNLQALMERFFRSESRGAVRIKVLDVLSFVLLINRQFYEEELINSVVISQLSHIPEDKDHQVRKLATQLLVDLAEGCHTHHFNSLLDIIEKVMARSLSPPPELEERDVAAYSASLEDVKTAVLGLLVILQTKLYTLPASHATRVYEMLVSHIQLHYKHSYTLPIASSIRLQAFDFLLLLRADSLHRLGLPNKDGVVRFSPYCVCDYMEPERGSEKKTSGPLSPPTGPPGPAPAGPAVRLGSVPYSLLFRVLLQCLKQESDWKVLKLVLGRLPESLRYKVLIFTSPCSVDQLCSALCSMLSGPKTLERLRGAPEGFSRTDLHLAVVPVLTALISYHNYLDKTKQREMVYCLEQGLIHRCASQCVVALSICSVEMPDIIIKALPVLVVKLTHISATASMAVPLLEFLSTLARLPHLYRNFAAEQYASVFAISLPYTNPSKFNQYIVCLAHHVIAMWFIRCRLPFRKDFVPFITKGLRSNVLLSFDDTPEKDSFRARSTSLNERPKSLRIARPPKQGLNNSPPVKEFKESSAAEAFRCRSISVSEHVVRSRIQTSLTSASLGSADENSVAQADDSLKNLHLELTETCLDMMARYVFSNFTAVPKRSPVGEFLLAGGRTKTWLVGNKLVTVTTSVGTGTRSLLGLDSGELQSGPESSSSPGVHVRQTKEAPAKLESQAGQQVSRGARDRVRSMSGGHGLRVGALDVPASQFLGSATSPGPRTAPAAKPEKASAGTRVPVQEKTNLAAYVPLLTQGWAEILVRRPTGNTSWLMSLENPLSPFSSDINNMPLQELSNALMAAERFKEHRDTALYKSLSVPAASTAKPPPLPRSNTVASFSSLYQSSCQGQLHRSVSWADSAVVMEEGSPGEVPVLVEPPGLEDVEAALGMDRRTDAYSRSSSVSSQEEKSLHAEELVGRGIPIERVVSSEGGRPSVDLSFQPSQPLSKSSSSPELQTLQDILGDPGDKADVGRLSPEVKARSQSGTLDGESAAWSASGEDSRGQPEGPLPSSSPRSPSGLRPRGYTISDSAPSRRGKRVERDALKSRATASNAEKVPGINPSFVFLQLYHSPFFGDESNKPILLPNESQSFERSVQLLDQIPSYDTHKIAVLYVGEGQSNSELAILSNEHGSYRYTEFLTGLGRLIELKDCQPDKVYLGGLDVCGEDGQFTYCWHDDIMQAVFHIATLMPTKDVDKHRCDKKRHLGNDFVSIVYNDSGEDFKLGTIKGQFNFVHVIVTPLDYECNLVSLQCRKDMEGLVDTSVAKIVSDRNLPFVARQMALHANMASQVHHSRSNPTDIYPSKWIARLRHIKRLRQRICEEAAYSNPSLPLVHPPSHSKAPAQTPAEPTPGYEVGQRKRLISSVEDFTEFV
substance,measurement,setting,value
Active recombinant Akt (Upstate Biotechnology),in vitro phosphorylation of tuberin; mobility shift on low percentage SDS-PAGE,FLAG-tagged tuberin,"This mobility shift in tuberin was not observed when tuberin was phosphorylated by active recombinant Akt, even at levels of tuberin phosphorylation comparable to those induced by AMPK"
Active recombinant AMPK (Upstate Biotechnology),in vitro phosphorylation of tuberin; mobility shift on low percentage SDS-PAGE,FLAG-tagged tuberin,"when tuberin was stoichiometrically phosphorylated by AMPK, it underwent a mobility shift"
"Kinase-inactive LKB1 (K78I) coexpressed with STRAD, Flag immunoprecipitate",AMPK kinase activity towards the SAMS peptide after in vitro kinase reaction with LKB1,[1],Kinase-inactive LKB1 alone or coexpressed with STRAD was unable to activate AMPK
MBP-AMPKa (1-312) bacterial fusion protein,in vitro phosphorylation of FLAG-tagged tuberin by recombinant AMPK pre-activated with wild-type LKB1,FLAG-tagged tuberin,AMPK activated by wild-type LKB1 directly phosphorylated tuberin in vitro
same,phosphorylation of the SAMS peptide by unphosphorylated MBP-AMPK,SAMS peptide,bacterial MBP-AMPK is inactive towards the peptide
